# Source: US20160083466A1 (Regeneron, published 2016)
# T1: monkey IL-25 expressed with a C-terminal myc-myc-hexahistidine tag (M. fascicularis (cynomolgus monkey))
# T1 construct: also called monkey IL-25-MMH; MfIL-25-MMH
# T1 chain: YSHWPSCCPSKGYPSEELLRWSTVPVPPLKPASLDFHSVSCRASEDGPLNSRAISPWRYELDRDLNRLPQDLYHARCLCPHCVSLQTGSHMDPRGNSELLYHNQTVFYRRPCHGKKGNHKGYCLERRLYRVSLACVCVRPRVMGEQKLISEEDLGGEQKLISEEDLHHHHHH
# T2: human IL-25 expressed with a C-terminal myc-myc-hexahistidine tag (human)
# T2 construct: also called human IL-25-MMH; hIL-25-MMH
# T2 chain: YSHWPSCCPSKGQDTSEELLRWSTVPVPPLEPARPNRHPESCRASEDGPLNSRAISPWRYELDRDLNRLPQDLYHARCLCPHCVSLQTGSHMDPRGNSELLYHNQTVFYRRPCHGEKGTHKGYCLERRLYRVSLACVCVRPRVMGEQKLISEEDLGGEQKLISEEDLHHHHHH
# B1: H4H10897P (antibody, human IgG4, V domains shown)
# VH: QVQLQESGPGLVKPSETLSLTCTVSGGSISDYYWSWIRQPPGKGLEWIGHIYYSGSTNHNPSLKSRVAISVDTSKNQFSLRLYSVTAADTAVYYCARDGYSSSSGFYYFGMDVWGQGTTVTVSS
# VL: DIQLTQSPSFLSASVGDRVTITCWASQDINSYLAWYQQKPGKAPKLLIFAASTLQGGVPSRFSGSGSGTEFTLTISSLQPEDFATYYCQHLSSFPPTFGQGTRLEIK
# B2: H4H10905P (antibody, human IgG4, V domains shown)
# VH: QVQLVQSGAEVKKPGTSVKVSCKASGYTFTNYGISWVRQAPGQGLEWLGWISAYNDNTDYAQKLQARVTMTTDTFTSTAYMDLRSLRSDDTAVYYCARVPITGTTSSFDFWGQGTLVTVSS
# VL: DIQMTQSPSSLSASVGDRVTISCRASQTIYSYLNWFQQKPGKAPKLLIYDASSLQSGVPSRFSGSGSGTHFTLTISSLQPEDFATYFCQQTYSTPLTFGGGTKVEIK
# B3: H4H10876P (antibody, human IgG4, V domains shown)
# VH: QVQLVQSGAEVKKPGASVKVSCKASEYTFSNYGISWVRQAPGQGLEWLGWIGAYSGFTKYAQKVQDRITMTTDASTTTAYMELRNLRSDDTAVYYCARVGTGTDSYFDFWGQGTLVTVSS
# VL: DIQMTQSPSSLSASVGDRVTITCRASQNINSHLNWYQQKPGKAPKLLIYTASSLQSGVPLRFSGSGSGTDFTLTISSLQPEDFGIYICQQTYITPLTFGGGTKVEIK
# B4: H4H10883P (antibody, human IgG4, V domains shown)
# VH: QVQLQESGPGLVKSSETLSLTCTVSGGSISSYYWSWIRQPPGKGLEWIGFIYYSGSTNYNPSLKSRVTFSVDTSKNHFSLKLNSVTATDTAVYYCARHYFDSGTYELGPFDYWGQGTLVTVSS
# VL: DIVMTQSPDSLAVSLGERATINCKSSQNILLTSSNKNYLTWYQQKPGQPPKLLIYWASIRESGVPDRFSGSGSGTDFTLTISSLQAEDVALYFCQQYYITPFTFGPGTKVDIK
# B5: H4H10871P (antibody, human IgG4, V domains shown)
# VH: QVQLVQSGAEVMKPGASVKVSCKSSDFAFTTYGISWVRQAPGQGLEWMGWISAYNGNTNYEQRFQGRITMTTDTSTTTVYMELRSLRSDDTAVYYCARDPDYCSSNTCSDAFDLWGQGTMVTVSS
# VL: DIQMTQSPSSLSASVRDRVTITCRASQGITNYLAWYQQKPGKVPKVLIYAASTLQSGVPSRFSGSGSGTEFTLAISSLQPEDVATYFCQQYGSAPWTFGQGTKVEIK
# B6: H4H10907P (antibody, human IgG4, V domains shown)
# VH: EVQLVESGGGLVQPGGSLRLSCAASGFTFSNYDIHWVRQVPGKGLEWISTIGSAGDTFYPGSVKGRFTISRENAKNSLYLQMNSLRAGDSAVYYCARGDNWNYVSWFFDLWGRGTLVTVSS
# VL: DIQLTQSPSFLSTSVGDRVTITCWASQDISSFLAWYQQKPGKAPKLLIYAASVLQSGVPSRFSGSGSGTEFTLTISSLQPEDFATYYCQQVNSYPITFGQGTRLEIK
# B7: H2M10690N (antibody, V domains shown)
# VH: QVQLVQSGAEVKKPGASVKVSCKASGYTFTSYGISWVRQAPGQGLEWMGWISAYNGNTNYAQKLQGRVTMTTDTSTSTAYMELRSLRSDDTAVYYCARVPITGTTWFDPWGQGTLVTVSS
# VL: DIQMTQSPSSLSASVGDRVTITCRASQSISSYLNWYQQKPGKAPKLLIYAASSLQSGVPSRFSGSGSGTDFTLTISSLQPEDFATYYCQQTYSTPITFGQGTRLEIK
# notes: also called H2aM10690N
# B8: H4H10863P (antibody, human IgG4, V domains shown)
# VH: QVQLVQSGAEVKKPGASVKVSCKASGYTFSSYGISWVRQAPGQGLEWMGWISAYNDNTQYAQKFQGRVTMTTDTSTSTAYMELRSLRSDDTAVYYCARVPLQWFGESFDHWGQGTLVTVSS
# VL: DIQMTQSPSSLSASVGDRVTITCRASQDINNYLNWFQQKPGKAPKLLIFSTSSLQSGVPSRFSGSGSGTDFTLTISSLQSEDFATYYCQQTFITPLTFGGGTKVEIK
# What was measured:
# [1] = biological target: T1, monkey IL-25 expressed with a …; experiment: SPR Biacore, captured mAb, 25°C;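 for 100 nM Human IL-25-MMH Bound (RU): biacore 4000 SPR with IL-25-MMH as analyte over purified anti-IL-25 antibodies, association and dissociation rates derived from fitting sensorgrams to a 1:1 binding model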;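 for 100 nM Monkey IL-25-MMH Bound (RU): Real-time surface plasmon resonance on a Biacore 4000, with IL-25-MMH binding to purified anti-IL-25 antibodies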
# Procedure: (§1) Equilibrium dissociation constants (KD values) for IL-25 binding to purified anti-IL-25 antibodies were determined using a real-time surface plasmon resonance biosensor assay on a Biacore 4000 instrument (GE Healthcare). […] All the IL-25 reagents were expressed with a C-terminal myc-myc-hexahistidine tag (referred to herein as “IL-25-MMH”). […] Kinetic association (kₐ) and dissociation (kd) rate constants were determined by fitting the real-time sensorgrams to a 1:1 binding model using Scrubber 2.0c curve fitting software.
# [2] = biological target: T2, human IL-25 expressed with a C-terminal …; experiment: SPR Biacore, captured mAb, 25°C;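 for 100 nM Human IL-25-MMH Bound (RU): biacore 4000 SPR with IL-25-MMH as analyte over purified anti-IL-25 antibodies, association and dissociation rates derived from fitting sensorgrams to a 1:1 binding model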;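 for 100 nM Monkey IL-25-MMH Bound (RU): Real-time surface plasmon resonance on a Biacore 4000, with IL-25-MMH binding to purified anti-IL-25 antibodies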
# Procedure: as §1
# [3] = biological target: T2, human IL-25 expressed with a C-terminal …; experiment: SPR Biacore, captured mAb, 37°C
# Procedure: as §1
Binder,100 nM Monkey IL-25-MMH Bound (RU) [1],Kd [1],koff [1],kon [1],t½ [1],100 nM Human IL-25-MMH Bound (RU) [2],Kd [2],koff [2],kon [2],t½ [2],100 nM Human IL-25-MMH Bound (RU) [3],Kd [3],koff [3],kon [3],t½ [3]
B1,42 RU,74.9 pM,8.43e-05 s⁻¹,1.13e+06 M⁻¹ s⁻¹,2.28 h,39 RU,126 pM,7.87e-05 s⁻¹,623000 M⁻¹ s⁻¹,2.45 h,48 RU,218 pM,0.000226 s⁻¹,1.04e+06 M⁻¹ s⁻¹,0.85 h
B2,54 RU,186 pM,7.77e-05 s⁻¹,417000 M⁻¹ s⁻¹,2.48 h,49 RU,228 pM,0.000109 s⁻¹,478000 M⁻¹ s⁻¹,1.77 h,55 RU,149 pM,0.00012 s⁻¹,809000 M⁻¹ s⁻¹,1.6 h
B3,51 RU,218 pM,7.18e-05 s⁻¹,329000 M⁻¹ s⁻¹,2.68 h,45 RU,124 pM,4.78e-05 s⁻¹,386000 M⁻¹ s⁻¹,4.03 h,60 RU,94.4 pM,5.93e-05 s⁻¹,628000 M⁻¹ s⁻¹,3.25 h
B4,58 RU,≤ 9.65 pM,≤ 1e-05 s⁻¹,1.04e+06 M⁻¹ s⁻¹,19.2 h,56 RU,≤ 14.2 pM,≤ 1e-05 s⁻¹,706000 M⁻¹ s⁻¹,19.2 h,74 RU,30.4 pM,4.8e-05 s⁻¹,1.58e+06 M⁻¹ s⁻¹,4.02 h
B5,42 RU,96.5 pM,6.06e-05 s⁻¹,628000 M⁻¹ s⁻¹,3.18 h,38 RU,85.1 pM,6.38e-05 s⁻¹,749000 M⁻¹ s⁻¹,3.02 h,49 RU,27.6 pM,3.18e-05 s⁻¹,1.15e+06 M⁻¹ s⁻¹,6.05 h
B6,43 RU,48.5 pM,6.74e-05 s⁻¹,1.39e+06 M⁻¹ s⁻¹,2.85 h,40 RU,88.3 pM,6.5e-05 s⁻¹,736000 M⁻¹ s⁻¹,2.97 h,47 RU,37.5 pM,4.45e-05 s⁻¹,1.19e+06 M⁻¹ s⁻¹,4.32 h
B7,–,–,–,–,–,32 RU,36200 pM,0.0029 s⁻¹,80200 M⁻¹ s⁻¹,0.0667 h,39 RU,61400 pM,0.00844 s⁻¹,137000 M⁻¹ s⁻¹,0.0233 h
B8,39 RU,199 pM,6.83e-05 s⁻¹,343000 M⁻¹ s⁻¹,2.82 h,34 RU,279 pM,7.25e-05 s⁻¹,260000 M⁻¹ s⁻¹,2.65 h,46 RU,128 pM,7.78e-05 s⁻¹,606000 M⁻¹ s⁻¹,2.48 h
